# Data from paper PMC2752054.
# Like-named read-outs stand apart in the source and are kept apart here.
# T1: N-HisPurβ (Purine-rich element binding protein B) (UniProt O35295 1-324)
# T1 sequence: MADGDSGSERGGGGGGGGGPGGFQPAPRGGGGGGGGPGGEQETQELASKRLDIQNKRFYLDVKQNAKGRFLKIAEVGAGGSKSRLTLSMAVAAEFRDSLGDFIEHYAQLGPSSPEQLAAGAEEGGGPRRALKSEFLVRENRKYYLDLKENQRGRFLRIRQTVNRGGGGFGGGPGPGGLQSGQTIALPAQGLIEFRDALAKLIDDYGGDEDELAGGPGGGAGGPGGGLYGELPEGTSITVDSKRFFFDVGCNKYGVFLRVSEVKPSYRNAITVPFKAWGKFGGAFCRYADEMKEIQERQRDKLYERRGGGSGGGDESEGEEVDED
# Legend:
# [1] = molecular target: T1, N-HisPurβ (Purine-rich element binding …); experiment: competition
# [2] = molecular target: T1, N-HisPurβ (Purine-rich element binding …); experiment: competition; remark: listed apart in the source
# [3] = molecular target: T1, N-HisPurβ (Purine-rich element binding …); experiment: competition; remark: listed apart in the source
# [4] = molecular target: T1, N-HisPurβ (Purine-rich element binding …); experiment: competition; remark: listed apart in the source
# [5] = molecular target: T1, N-HisPurβ (Purine-rich element binding …); experiment: competition; remark: listed apart in the source
# [6] = molecular target: T1, N-HisPurβ (Purine-rich element binding …); experiment: competition; remark: listed apart in the source
# [7] = molecular target: T1, N-HisPurβ (Purine-rich element binding …); experiment: EMSA
binder,measurement,setting,value
TTTTTTTGAACAGAGGAATGCAGTGGAAGAGA (ssDNA) [PE32-F-5T7],binding signal,[1],~4 fold IC50 increase vs PE32-F
TTTTTTTGAACAGTTTTTTTCAGTTTTTTTTA (ssDNA) [PE32-F-3I5T7],binding result,[2],no binding
TTTTTTTTTTTTTTTTTTTTTTTTTTTTTTTT (ssDNA) [dT32],binding result,[3],no binding
TTTTTTTGAACAGAGGAATGCAGTTTTTTTTA (ssDNA) [PE32-F-35T7],binding signal,[4],> 50 fold IC50 increase vs PE32-F
GGGAGCAGAACAGTTTTTTTCAGTGGAAGAGA (ssDNA) [PE32-F-IT7],binding result,[5],binds
"GGGAGCAGAACAGAGGAATGCAGTGGAAGAGA (ssDNA) [PE32-F (PE32-F*, PE32-bF, PE32-F-3FLC)]",binding signal,[6],1 fold IC50 (reference)
same,Kd,[7],~0.3 nM
GGGAGCAGAACAGAGGAATGCAGTTTTTTTTA (ssDNA) [PE32-F-3T7],binding result,[5],binds
